Substitutions are numbered along the chain they refer to.
T1: human TIGIT-Fc (human, UniProt Q495A1 22-141, limits assumed)
T1 construct: not shown: Fc; not described
T1 sequence (looked up): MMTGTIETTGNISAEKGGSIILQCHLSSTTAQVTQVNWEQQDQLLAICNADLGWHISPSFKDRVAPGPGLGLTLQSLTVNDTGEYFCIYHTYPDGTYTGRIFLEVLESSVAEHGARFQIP

B1: TIGIT-SC137 (Fc fusion)
VHH: EVQLVESGGGLVQPGGSLRLSCAASGFTLENNMMGWFRQAPGKEREFVAAISRSGTLKAYADSVKGRFTISADNSKNTAYLQMNSLKPEDTAVYYCSLVSGPRWYWGQGTLVTVSS
notes: VHH-Fc
B2: TIGIT-SC136 (Fc fusion)
VHH: EVQLVESGGGLVQPGGSLRLSCAASGFTLENNMMGWFRQAPGKEREFVAAISRSGTLKAYADSVKGRFTISADNSKNTAYLQMNSLKPEDTAVYYCARGGELTTFYFGYWGQGTLVTVSS
notes: VHH-Fc
B3: TIGIT-SC150 (Fc fusion)
VHH: EVQLVESGGGLVQPGGSLRLSCAASGFTLENNMMGWFRQAPGKEREFVAAISRSGTLKAYADSVKGRFTISADNSKNTAYLQVNSLKPEDTAVYYCVRVRGYSGYDCDYWGQGTLVTVSS
notes: VHH-Fc
B4: TIGIT-SC105 (Fc fusion)
VHH: EVQLVESGGGLVQPGGSLRLSCAASGFAFSRYGMGWFRQAPGKERELVATIGWSGSSTFYADSVKGRFTISADNSKNTAYLQMNSLKPEDTAVYYCARDGGPYYYGLDVWGQGTLVTVSS
notes: VHH-Fc
B5: TIGIT-SC167 (Fc fusion)
VHH: EVQLVESGGGLVQPGGSLRLSCAASGRTFSFMGWFRQAPGKEREWVASVLRGGYTWYADSVKGRFTISADNSKNTAYLQMNSLKPEDTAVYYCAREGSGYASDYWGQGTLVTVSS
notes: VHH-Fc
B6: TIGIT-SC158 (Fc fusion)
VHH: EVQLVESGGGLVQPGGSLRLSCAASGFTFSPSWMGWFRQAPGKEREWVASVLRGGYTWYADSVKGRFTISADNSKNTAYLQMNSLKPEDTAVYYCAREGRSSSPWFDPWGQGTLVTVSS
notes: VHH-Fc
B7: TIGIT-SC154 (Fc fusion)
VHH: EVQLVESGGGLVQPGGSLRLSCAASGFAFSSDWMGWFRQAPGKEREWVASVLRGGYTWYADSVKGRFTISADNSKNTAYLQMNSLKPEDTAVYYCAGDYRGFEMAFDPWGQGTLVTVSS
notes: VHH-Fc
B8: TIGIT-SC160 (Fc fusion)
VHH: B6 VHH with F27N, P31G, S32G, W33F
notes: VHH-Fc
B9: TIGIT-SC155 (Fc fusion)
VHH: B7 VHH with F27N, A28T, S31G, D32G, W33F
notes: VHH-Fc
B10: TIGIT-SC202 (Fc fusion)
VHH: EVQLVESGGGLVQPGGSLRLSCAASGFTFSPSWMGWFRQAPGKEREWVASVLRGGYTWYADSVKGRFTISADNSKNTAYLQMNSLKPEDTAVYYCTTDGGYSGIVGFAWGQGTLVTVSS
notes: VHH-Fc
B11: TIGIT-SC159 (Fc fusion)
VHH: B6 VHH with S30D, P31R
notes: VHH-Fc
B12: TIGIT-SC180 (Fc fusion)
VHH: EVQLVESGGGLVQPGGSLRLSCAASGFTLNDYAMGWFRQAPGKERELVAWIARYDGSTLYADSVKGRFTISADNSKNTAYLQMNSLKPEDTAVYYCASEVASGETDYWGQGTLVTVSS
notes: VHH-Fc
B13: TIGIT-SC143 (Fc fusion)
VHH: EVQLVESGGGLVQPGGSLRLSCAASGFTLGYYVMGWFRQAPGKEREFVAAISASGTLRAYADSVEGRFTISADNSKNTAYLQMNSLKPEDTAVYYCARAELGYSYGSVDGYWGQGTLVTVSS
notes: VHH-Fc
B14: TIGIT-SC148 (Fc fusion)
VHH: EVQLVESGGGLVQPGGSLRLSCAASGDIGSINAMGWFRQAPGKEREFVAGIWRSGNLKAYADSVKGRFTISADNSKNTAYLQMSSLKPEDTAVYYCARGNIVVVPAAFVIWFDPWGQGTLVTVSS
notes: VHH-Fc
B15: TIGIT-SC134 (Fc fusion)
VHH: EVQLVESGGGLVQPGGSLRLSCAASGFTLENNMMGWFRQAPGKEREFVAAISASGTLRAYADSVKGRFTISADNSKNTAYLQMNSLKPEDTAVYYCARWYRVNNWSPGYYYYMDVWGQGTLVTVSS
notes: VHH-Fc
B16: TIGIT-SC174 (Fc fusion)
VHH: EVQLVESGGGLVQPGGSLRLSCAASGFLFDSYAMGWFRQAPGKEREFVAAISWSGGSTYYADSVKGRFTISADNSKNTAYLQMNSLKPEDTAVYYCTTDALRFLEWPWWGQGTLVTVSS
notes: VHH-Fc
B17: TIGIT-SC142 (Fc fusion)
VHH: EVQLVESGGGLVQPGGSLRLSCAASGFSFDRWAMGWFRQAPGKEREFVAAIGWSGNLKAYADSVKGRFTISADNSKNTAYLQMNSLKPEDTAVYYCASGDGYSMDYFDPWGQGTLVTVSS
notes: VHH-Fc
B18: TIGIT-SC139 (Fc fusion)
VHH: EVQLVESGGGLVQPGGSLRLSCAASGFTLENNMMGWFRQAPGKEREFVAAISRSGTLKAYADSVKGRFTISADNSKNTAYLRMNSLKPEDTAVYYCAGLTSGGAFSYYWGQGTLVTVSS
notes: VHH-Fc
B19: TIGIT-SC133 (Fc fusion)
VHH: EVQLVESGGGLVQPGGSLRLSCAASGFTLENNMMGWFRQAPGKEREFVAAISASGTLRAYADSVKGRFTISADNSKNTAYLQMNSLKPEDTAVYYCACGRVSGAFIYFDYWGQGTLVTVSS
notes: VHH-Fc
B20: TIGIT-SC145 (Fc fusion)
VHH: EVQLVESGGGLVQPGGSLRLSCAASGNTFSGGFTLGYYVMGWFRQAPGKEREFVAAISRSGTLKAYADGVKGRFTISADNSKNTAYLQMNSLKPEDTAVYYCARVEAYGDPLGYWGQGTLVTVSS
notes: VHH-Fc
B21: TIGIT-SC146 (Fc fusion)
VHH: EVQLVESGGGLVQPGGGLRLSCAASGFTLENNMMGWFRQAPGKEREFVAAISASGTLRAYADSVKGRFTISADNSKNTAYLQMNSLKPEDTAVYYCAKGGQAGPMAFYFDYWGQGTLVTVSS
notes: VHH-Fc
B22: TIGIT-SC161 (Fc fusion)
VHH: EVQLVESGGGLVQPGGSLRLSCAASGFTFSPSWMGWFRQAPGKEREWVASVLRGGYTWYADSVKGRFTISADNSKNTAYLQMNSLKPEDTAVYYCTTDRAIGVRPLFDHWGQGTLVTVSS
notes: VHH-Fc
B23: TIGIT-SC147 (Fc fusion)
VHH: EVQLVESGGGLVQPGGSLRLSCAASGTITSAVFMGWFRQAPGKEREFVAAVIWRGGSLKSYADSVKGRFTISADNSKNTAYLQMNSLKPEDTAVYYCAKLAVAGNYYYYGMDVWGQGTLVTVSS
notes: VHH-Fc
B24: TIGIT-SC144 (Fc fusion)
VHH: EVQLVESGGGLVQPGGSLRLSCAASGFTLENNMMGWFRQAPGKEREFVAAISPSGTLRAYADSVKGRFTISADNSKNTAYLQMNSLKPEDTAVYYCAGIHDSGVPLGNWGQGTLVTVSS
notes: VHH-Fc
B25: TIGIT-SC176 (Fc fusion)
VHH: EVQLVESGGGLVQPGGSLRLSCAASGFTFSPSWMGWFRQAPGKEREWVASVLRGGYTWYADSVKGRFTISADNSKNTAYLQMNSLKPEDTAVYYCVHEDSVAAHFDFWGQGTLVTVSS
notes: VHH-Fc
B26: TIGIT-SC177 (Fc fusion)
VHH: B25 VHH with V96A, H97T, E98D, D99R, S100G, V101P, A103M, H104V, D106N, F107L
notes: VHH-Fc
B27: TIGIT-SC140 (Fc fusion)
VHH: EVQLVESGGGLVQPGGSLRLSCAASGNTFSGGFTFDRSWMGWFRQAPGKEREWVASVLRGGYTWYADSVKGRFTISADNSKNTAYLQMNSLKPEDTAVYYCAGDRYYDFWSGPNSGDYWGQGTLVTVSS
notes: VHH-Fc
B28: TIGIT-SC169 (Fc fusion)
VHH: EVQLVESGGGLVQPGGSLRLSCAASGFTLNDYAMGWFRQAPGKERELVAWIARYDGSTLYADSVKGRFTISADNSKNTAYLQMNSLKPEDTAVYYCTTELRWELQQPDYWGQGTLVTVSS
notes: VHH-Fc
B29: TIGIT-SC179 (Fc fusion)
VHH: EVQLVESGGGLVQPGGSLRLSCAASGFTFSPSWMGWFRQAPGKEREWVASVLRGGYTWYADSVKGRFTISADNSKNTAYLQMNSLKPEDTAVYYCASEVASGETDYWGQGTLVTVSS
notes: VHH-Fc
B30: TIGIT-SC163 (Fc fusion)
VHH: B29 VHH with S30D, P31R, S97T, E98D, V99K, A100R, S101G, G102P, E103H, T104P
notes: VHH-Fc
B31: TIGIT-SC178 (Fc fusion)
VHH: B29 VHH with F29L
notes: VHH-Fc
B32: TIGIT-SC166 (Fc fusion)
VHH: B29 VHH with S30D, P31R, S97R, V99G, A100S, S101G, G102Y, E103A, T104S
notes: VHH-Fc
B33: TIGIT-SC168 (Fc fusion)
VHH: EVQLVESGGGLVQPGGSLRLSCAASGFTFDRSWMGWFRQAPGKEREWVASVLRGGYAWYADSVKGRFTISADNSKNTAYLQMSSLKPEDTAVYYCAREGSGYASDYWGQGTLVTVSS
notes: VHH-Fc
B34: TIGIT-SC184 (Fc fusion)
VHH: EVQLVESGGGLVQPGGSLRLSCAASGFTFSPSWMGWFRQAPGKEREWVASVLRGGYTWYADSVKGRFTISADNSKNTAYLQMNSLKPEDTAVYYCTTDRGYNWNYDWGQGTLVTVSS
notes: VHH-Fc
B35: TIGIT-SC141 (Fc fusion)
VHH: EVQLVESGGGLVQPGGSLRLSCAASGNAFSSSVMGWFRQAPGKEREFVAGIWRSGSLKAYADSVKGRFTISADNSKNTAYLQMNSLRPEDTAVYYCARAYVGMTTVTFDHWGQGTLVTVSS
notes: VHH-Fc

Target: T1, human TIGIT-Fc
Assay: CD155 competition ELISA, single point; note: test concentration or dose not given here
Experimental: TIGIT/CD155 inhibition of VHH-Fcs were assessed using an ELISA assay (Table 10B). Briefly, human TIGIT-Fc was coated on a plate & then incubated with VHH-Fcs and human CD155-biotin. Bound CD155-biotin was detected using a streptavidin-HRP conjugate visualized with TMB. Strong inhibitors from the single point screen were titrated to determine EC50 (Table 10C).

In order of rising “OD (450 nm)” value:
1. B5  0.279 OD
2. B19  0.284 OD
3. B1  0.306 OD
4. B33  0.306 OD
5. B30  0.328 OD
6. B32  0.328 OD
7. B21  0.423 OD
8. B20  0.432 OD
9. B3  0.445 OD
10. B9  0.449 OD
11. B22  0.451 OD
12. B7  0.465 OD
13. B8  0.467 OD
14. B6  0.472 OD
15. B31  0.494 OD
16. B26  0.507 OD
17. B18  0.51 OD
18. B14  0.52 OD
19. B16  0.532 OD
20. B34  0.534 OD
21. B10  0.545 OD
22. B25  0.57 OD
23. B2  0.571 OD
24. B29  0.591 OD
25. B13  0.626 OD
26. B35  0.633 OD
27. B12  0.639 OD
28. B28  0.679 OD
29. B24  0.686 OD
30. B17  0.69 OD
31. B27  0.708 OD
32. B11  0.749 OD
33. B15  0.845 OD
34. B23  0.878 OD
35. B4  0.959 OD
